In patent publication US20140363438A1, “NEUREGULIN ANTIBODIES AND USES THEREOF” (Genentech, Inc., priority 2011, published 2014):
Positions count from the first letter of the chain named.

Key:
HB-EGF = HB-EGF (UniProt Q99075 63-148, limits assumed); test: ELISA
EGF = EGF (UniProt P01133 971-1023); test: ELISA
Betacellulin (BTC) = target: T1, Betacellulin (BTC) (UniProt P35070 32-111); test: ELISA
T1 sequence (looked up): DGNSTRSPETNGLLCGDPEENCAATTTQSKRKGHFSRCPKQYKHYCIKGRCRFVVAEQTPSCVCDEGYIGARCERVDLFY

[1] = target: T2, Recombinant human NRG1-α EGF domain (R&D Systems, cat#296-HR/CF) (human, UniProt Q02297 177-241); test: SPR (BIAcore T100), IgG captured by anti-human Fc, NRG1α injected; sensorgram shown for 6.25 nM (sheet: '6.25 mnM NRG alpha')
T2 construct: also called NRG1-alpha; HRG1α
T2 sequence: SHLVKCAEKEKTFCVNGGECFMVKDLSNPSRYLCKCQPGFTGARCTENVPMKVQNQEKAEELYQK
Procedure: (§1) Binding affinities of anti-NRG1 IgGs were measured by Surface Plasmon Resonance (SRP) using a BIAcore™-T100 instrument. Anti-NRG1 human IgGs were captured by mouse anti-human Fc antibody (GE Healthcare, cat# BR-1008-39) coated on CM5 biosensor chips to achieve approximately 1000 response units (RU). […] Association rates (kₒₙ) and dissociation rates (koff) were calculated using a simple one-to-one Langmuir binding model (BIAcore Evaluation Software version 3.2). The equilibrium dissociation constant (KD) was calculated as the ratio koff/kₒₙ.

[2] = target: T3, Recombinant human NRG1-β ECD domain (R&D Systems, cat#377-HB/CF) (human, UniProt Q02297-11 121-191, limits assumed); test: competition ELISA on NRG1β; self-competition, signal read: 538.24.71
T3 construct: also called NRG1-beta; HRG1β
T3 sequence: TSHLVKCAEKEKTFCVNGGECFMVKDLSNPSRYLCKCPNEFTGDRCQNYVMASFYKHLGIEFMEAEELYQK

[3] = target: T2, Recombinant human NRG1-α EGF domain …; test: competition ELISA on NRG1α; self-competition, signal read: 538.24.71
[4] = target: T3, Recombinant human NRG1-β ECD domain …; test: competition ELISA on NRG1β; competitor whose signal is read: 526.90
[5] = target: T3, Recombinant human NRG1-β ECD domain …; test: SPR (BIAcore T100), IgG captured by anti-human Fc, NRG1β injected; sensorgram shown for 6.25 nM (sheet: '6.25 mnM NRG beta')
Procedure: as §1

[6] = target: T3, Recombinant human NRG1-β ECD domain …; test: SPR (BIAcore T100), IgG captured by anti-human Fc; table under the head '125nM NRG-beta'; this table is identical to that of FIG. 9 (NRG1-alpha) and does not fit the slow dissociation of the sensorgrams above it
[7] = target: T2, Recombinant human NRG1-α EGF domain …; test: competition ELISA on NRG1α; competitor whose signal is read: 526.90
[8] = target: T2, Recombinant human NRG1-α EGF domain …; test: competition ELISA on NRG1α; competitor whose signal is read: 526.02
[9] = target: T2, Recombinant human NRG1-α EGF domain …; test: SPR (BIAcore T100), IgG captured by anti-human Fc, NRG1α injected; table under the head '250 nM NRG1-alpha'
Procedure: as §1

[10] = target: T4, Recombinant human Neuregulin 1-beta (rhNRG1b, Genentech) (human, UniProt Q02297 1-640); test: cell-based or functional assay
T4 sequence: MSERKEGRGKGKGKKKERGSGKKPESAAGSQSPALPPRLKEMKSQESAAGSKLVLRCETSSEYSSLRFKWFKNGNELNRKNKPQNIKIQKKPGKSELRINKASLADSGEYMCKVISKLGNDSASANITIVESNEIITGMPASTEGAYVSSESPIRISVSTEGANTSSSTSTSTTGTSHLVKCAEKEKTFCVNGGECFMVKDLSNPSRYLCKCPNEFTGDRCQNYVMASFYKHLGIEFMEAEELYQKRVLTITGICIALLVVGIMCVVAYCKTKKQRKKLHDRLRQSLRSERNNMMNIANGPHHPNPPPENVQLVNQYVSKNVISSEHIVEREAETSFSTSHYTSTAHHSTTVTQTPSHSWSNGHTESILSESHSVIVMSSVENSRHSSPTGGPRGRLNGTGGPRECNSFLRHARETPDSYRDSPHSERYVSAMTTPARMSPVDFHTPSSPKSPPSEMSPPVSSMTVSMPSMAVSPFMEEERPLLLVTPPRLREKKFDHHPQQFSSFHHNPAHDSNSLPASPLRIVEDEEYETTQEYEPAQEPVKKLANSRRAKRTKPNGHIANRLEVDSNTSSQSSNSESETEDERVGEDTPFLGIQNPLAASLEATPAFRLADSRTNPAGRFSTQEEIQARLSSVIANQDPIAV

[11] = target: T2, Recombinant human NRG1-α EGF domain …; test: cell-based or functional assay
[12] = target: T3, Recombinant human NRG1-β ECD domain …; test: competition ELISA on NRG1β; competitor whose signal is read: 526.02
[13] = target: T2, Recombinant human NRG1-α EGF domain …; test: SPR (BIAcore T100), IgG captured by anti-human Fc, 250 nM NRG1α injected; sensorgram
Procedure: as §1

[14] = target: T2, Recombinant human NRG1-α EGF domain …; test: competition ELISA on NRG1α; signal of 526.90 against rising 538.24.71
NRG1β = target: T5, NRG1β (Homo sapiens, UniProt Q02297); test: Inhibition of 125I-HRG (NRG1β) binding to HER3-ECD-Fc; conditions: affinity matured clones of 538.24, FIG. 7
T5 sequence (Q02297 177-244 isoform Q02297-6 limits assumed): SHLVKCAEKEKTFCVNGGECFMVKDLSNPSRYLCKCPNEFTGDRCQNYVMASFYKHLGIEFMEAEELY
Procedure: The antibodies were tested for their ability to inhibit NRG1β binding to HER3-Fc. 125I-HRG was generated at Genentech as described previously (Sliwkowski et al JBC 1994). Binding assays were performed in Nunc break-apart strip wells (Thermo-Fisher Scientific, Rochester, N.Y.). Plates were coated at 4° C. overnight with 250 ng/well of HER3-ECD-Fc fusion protein in carbonate buffer (pH 9.6). Plates were rinsed twice with wash buffer (PBS/0.05% Tween 20) and blocked with 100 μL PBS including 1% bovine serum albumin (BSA) for 30 minutes. Increasing concentrations of anti-NRG1 antibodies in RPMI 1640 medium (Invitrogen; Carlsbad, Calif.) with 0.2% BSA were pre-bound to HER3-ECD-Fc. 125I-HRG (specific activity: 266 mCi/mg, 75,000 cpm/well) was added immediately after in a total assay volume of 130 μL. Plates were incubated for 2 hours at room temperature, rinsed twice, and individual wells were counted using a 100 Series Iso Data γ-counter. Samples were assayed in triplicates. Plotting was performed using KaleidaGraph 3.6 software. […]
The affinity matured variants were tested for their ability to block HRGβ binding to HER3-Fc. […] Plates were incubated for 2 hours at room temperature, rinsed twice, and individual wells were counted using a 100 Series Iso Data γ-counter. […]

Chain of EGF (P01133 971-1023 limits assumed): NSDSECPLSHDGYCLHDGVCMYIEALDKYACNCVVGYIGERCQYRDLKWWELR
Chain of HB-EGF (Q99075 63-148 limits assumed): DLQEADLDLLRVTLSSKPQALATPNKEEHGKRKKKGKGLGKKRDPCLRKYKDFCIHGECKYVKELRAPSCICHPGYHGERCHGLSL

B1: anti-NRG1 antibody 538.24.71 (antibody, human IgG1, kappa, V domains shown)
VH: EVQLVESGGGLVQPGGSLRLSCAASGFTFSGTWIHWVRQAPGKGLEWVAAITPADGSTNYADSVKGRFTISADTSKNTAYLQMNSLRAEDTAVYYCATYMFAMDYWGQGTLVTVSS
VL: DIQMTQSPSSLSASVGDRVTITCRASQDVSISLAWYQQKPGKAPKLLIYGASNLESGVPSRFSGSGSGTDFTLTISSLQPEDFATYYCQQHYTLPFTFGQGTKVEIKR
notes: also called YW538.24.71
B1: no binding (HB-EGF); no binding (EGF); no binding (Betacellulin (BTC)). The Kd [1] was 1.32 nM, the koff [1] was 0.00603 s⁻¹ and the kon [1] was 4.57e+06 M⁻¹ s⁻¹. The “IC50 (read off the curve)” value [2] was about 7 nM, the “IC50 (read off the curve)” value [3] was about 3 nM and the “IC50 (read off the curve)” value [4] was about 8 nM. For the same molecule, the Kd [5] was 0.00192 nM, the koff [5] was 1.48e-06 s⁻¹ and the kon [5] was 771000 M⁻¹ s⁻¹. It also gave a Kd [6] of 2 nM, a koff [6] of 0.03 s⁻¹ and a kon [6] of 1.5e+07 M⁻¹ s⁻¹. The “IC50 (read off the curve)” value [7] was about 4 nM, the “IC50 (read off the curve)” value [8] was about 5 nM and the Kd [9] was 2 nM. For the same molecule, the koff [9] was 0.03 s⁻¹, the kon [9] was 1.5e+07 M⁻¹ s⁻¹ and the “IC50 of inhibition of Her3 activation (phosphorylation), KIRA on MCF-7 cells, 0.2 nM rhNRG1b” value [10] was 0.12 nM. The “IC50 of inhibition of Her3 activation (phosphorylation), KIRA on MCF-7 cells, 0.5 nM rhNRG1a” value [11] was 14 nM and the “IC50 (read off the curve)” value [12] was about 2 nM.

B2: 538.24.38 (antibody, V domains shown)
VH: B1 VH
VL: DIQMTQSPSSLSASVGDRVTITCRASQDVSTAVAWYQQKPGKAPKLLIYSASFLYSGVPSRFSGSGSGTDFTLTISSLQPEDFATYYCQQSYTIPMTFGQGTKVEIK
notes: also called YW538.24.38; copies: 2 + 2
B2: binds [13].

B3: anti-NRG1 antibody 526.90 (antibody, human IgG1, V domains shown)
VH: EVQLVESGGGLVQPGGSLRLSCAASGFTFSGNAMSWVRQAPGKGLEWVSWIYPSGGNTYYADSVKGRFTISADTSKNTAYLQMNSLRAEDTAVYYCARSYILSYPSITWAFDYWGQGTLVTVSS
VL: DIQMTQSPSSLSASVGDRVTITCRASQSISSYLAWYQQKPGKAPKLLIYGASSRASGVPSRFSGSGSGTDFTLTISSLQPEDFATYYCQQSYSTPITFGQGTKVEIKR
notes: also called YW526.90
B3: binds [14].

B4: 538.24.38: affinity matured variant of 538.24; VH SEQ ID NO: 21, VL SEQ ID NO: 25 (antibody, V domains shown)
VH: B1 VH
VL: B1 VL with I31T, S32A, L33V, G50S, N53F, E55Y, H91S, L94I, F96M
modifications: Heavy chain variable region; Light chain variable region
For B4, the “blocking of 125I-NRG1β binding to Her3” value (NRG1β) was “All but 538.24.38 are highly effective in blocking binding”.
